Legend:
[1] = biological target: serpin Z4 (barley (Hordeum vulgare) cv. Harrington) (UniProt P06293); test: SPR; serpin Z4 immobilised by amine coupling on a CM5 chip, β-amylase injected at 2, 0.9, 0.4, 0.2 and 0.1 μM; PBS; Biacore T200
[2] = biological target: serpin Z4 (barley (Hordeum vulgare) cv. Harrington) (UniProt P06293); test: MST; serpin Z4 labelled with an NHS-ester fluorescent dye (70 nM), unlabelled β-amylase from 16 μM to 0.5 nM; PBS with 0.1% Tween-20; Monolith NT.115; three replicates combined

Sequence of serpin Z4 (barley (Hordeum vulgare) cv. Harrington) (P06293 whole entry): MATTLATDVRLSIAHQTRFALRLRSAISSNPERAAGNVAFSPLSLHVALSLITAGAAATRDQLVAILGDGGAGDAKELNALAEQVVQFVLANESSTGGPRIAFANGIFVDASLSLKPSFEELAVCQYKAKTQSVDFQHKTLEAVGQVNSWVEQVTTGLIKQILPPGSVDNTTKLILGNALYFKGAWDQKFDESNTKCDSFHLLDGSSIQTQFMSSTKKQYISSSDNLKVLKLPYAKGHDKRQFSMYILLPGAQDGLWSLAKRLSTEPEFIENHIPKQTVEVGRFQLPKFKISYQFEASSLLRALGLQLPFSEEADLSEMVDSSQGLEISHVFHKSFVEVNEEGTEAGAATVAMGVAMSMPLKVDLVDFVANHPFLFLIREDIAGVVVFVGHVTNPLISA

Kd [1]: 316 nM | Kd [2]: 100 nM
Substance: β-amylase WT (from UniProt P16098 1-535) (enzyme)

Source: paper PMC6508567
